The values below come from article PMC11162469, “Discovery of RXFP2 genetic association in resistant hypertensive men and RXFP2 antagonists for the treatment of resistant hypertension” (Scientific Reports, 2024).

B1: RXFP2 mAb 1F2 (antibody, V domains shown)
VH: QVQLKQSGPGLVQPSQSLSITCTVSGFSLTAYGVNWVRQSPGKGLEWLGVIWSGGNTDYNAPFISRLSITKDNSKSQVFFKMNSLEADDTAIYYCARAKGYYAMDYWGQGTSVTVSS
VL: DIQMTQSPASLSVSVGESVTITCRATENIYSNLVWYQQKQGQSPQLLVYAVTSLADGVPSRFSGSGSGTQYSLKINSLQSEDFGTYYCQHFWGTPYTFGGGTKLEIK
B2: RXFP2 mAb 2D4 (antibody, V domains shown)
VH: QVQLKESGPGLVAPSQSLSITCTVSGFSLTTYGISWVRQPPGKGLEWLGVIWTGGGTNYNSALKSRLSISKDNSKSQVFLKMNSLQTDDTARYYCARTEGYYVMDYWGQGTSVTVSS
VL: B1 VL with S18T, T26S, Q42K, V51A, S53N, S77N, T94P, Y96W
B3: RXFP2 mAb 4G6 (antibody, V domains shown)
VH: EVQLQQSGPELVKPGASVKLSCKASGYTFTSYVMHWVKQKPEQGLEWIGYKNPSNDGIKYNEKFKGKATLTSDKSSNIAYMELFSLTSEDSAVYYCARSDFGSVWAMDYWGQGTSVTVSS
VL: SIVMTQTPKFLLVSAGDRVTITCKASQSVNDDIVWYQQKPGQSPKLLIYYASNRYTGVPDRFTGSGYGTDFTFTISTVQAGDLAVYFCQQDYSSPFTFGSGTKLEIK
B4: RXFP2 mAb 3F1 (antibody, V domains shown)
VH: QVQLKESGPGLVAPSQSLSITCTVSGFSLTDYGVSWIRQPPGKGLEWLGVIWGGGSTDYNPALKSRLSISKDNSKSQVFLKMNSLQADDTAMYYCVKHEGYYAMDYWGQGTSVTVSS
VL: B1 VL with S18T, T26S, V34A, Q42K, Q45H, S53N, T85S
B5: RXFP2 mAb 4B8 (antibody, V domains shown)
VH: QVQLKQSGPGLVQPSQSLSITCTVSGFSLSRYGVHWVRQSPGKGLEWLGVIWSGGSTEYNAVFKSRLSISKDNSKSQVFFKMNSLQANDTAIYYCVRADGYYAMEYWGQGTSVTVSS
VL: B1 VL with S18T, T26S, V34A, Q42K, S53N, T85N
B6: RXFP2 mAb 4H1 (antibody, V domains shown)
VH: QIQLVQSGPELKKPGETVKISCKTSGYTFTKYPMHWVKQAPGEGLKWMGWINTYSGLPTFADDFKGRFAFSLETSANTADLQINNLKNEDMATYFCAREGKKLSGYFDYWGQGTTLTVSS
VL: DIKMTQSPSSMYASLGERVTITCKASQDINSYLTWFQQKPGQSPKTLIYRANRFVDGVPSRFSGSGSGQDYSLTITSLEYEDMGIYYCLQYDEFPYTFGGGTQLEIK
B7: RXFP2 mAb 4F6 (antibody, V domains shown)
VH: EVQLQQSGPELVKPGASVKMSCKASGYTFTNYVLHWVKQKPGQGLEWIGYINPYNDGSKYNEKFKGRATLTSDKSSSTAYMELSSLTSEDSAVYYCARGGWLLDYFDYWGQGTTLTVSS
VL: DVLMTQSPLSLPVSLGEQASISCRSSQSIVHSDGDTYLEWYLQKPGQSPNLLIYKVSNRFSGVPDRFSGSGSGTDFTLKISRVEAEDLGVYYCFQGSHVPPTFGGGTKLEIK
B8: RXFP2 mAb 4H2 (antibody, V domains shown)
VH: QVQLRQSGPSLVQPSQSLSITCTVSGFSLTNYGVHWVRQSPGKGLEWLGVIWRGGNTDHNAAFMSRLSITKDNSESQVFFKMNSLQVDDTAIYYCAKAEGYYALDYWGQGTSVTVYS
VL: B1 VL with S18T, T26S, V34A, Q42K, S53N, T85S, Y96W
B9: RXFP2 mAb 3H1 (antibody, V domains shown)
VH: QVQLKETGPGLVAPSQSLSITCTVSGFSLTNYGVNWVRQPPGKGLEWLVVIWSDGSTNYNSALKSRLSISKDNSKSQVFLKMNSLQTDDTAMYYCARQQGYYAMDYWGQGTSVIVSS
VL: B1 VL with S18T, T26S, V34A, Q42K, S53N, T85S, T94P
B10: RXFP2 mAb 4H5 (antibody, V domains shown)
VH: QVQLKQSGPGLVQPSQSLSITCTVSGFSLTNYGVHWVRQSPGKGLEWLGVIWRDGNTDYNAAFMSRLSITKDNSKSQVFFEMNSLQVDDTAIYYCCRGDGYYAMGYWGQGTSVTVSS
VL: B1 VL with S18T, T26S, V34A, K39R, Q42R, V51A, S53N, T85N, T94S, Y96R
B11: RXFP2 mAb 3G4 (antibody, V domains shown)
VH: QVQLKESGPGLVAPSQSLSITCTVSGFSLTSYGVSWVRQPPGKGLEWLGVIWGDGSTNYHSALISRLSISKDNSKSQVFLKLNSLQTDDTATYYCAKSLGYYAMDYWGQGTSVTVSS
VL: B1 VL with S18T, T26S, Q42K, V51A, S53N, D56E, T85S, T94P, Y96W
B12: RXFP2 mAb 3F3 (antibody, V domains shown)
VH: QVQLQQPGSVLVRPGASVKLSCKASGYIFTSYWMHWVKQRPGQGLEWIGEIYPNSGRTSYNEKFKGKATVTVDTSSSTAYVDLSSLTSEDSAVYYCASGGHWFAYWGQGTLVTVSA
VL: DIQMTQSSSSFSVSLGDRVTITCKASEDIYNRLAWYQQKPGNAPRLLISGATSLEAGVPSRFSGSGSGKDYTLSITSLQTEDVSTYYCQQYWITPYTFGGGTKLEIK
B13: RXFP2 mAb 1G1 (antibody, V domains shown)
VH: EVQLQQSGPELVKPGASVKMSCKASGYTFTDYNMHWVKQKPGQGLEWIGYINPYNDGTEYNEKFKGKATLTSDKSSSTAYMDLSSLTSEDSAVYYCARGLWFAMNYWGQGTSVTVSS
VL: B12 VL with A43T, S53I, A56T, T76I, S84A, T94I, Y96P
B14: RXFP2 mAb 4A5 (antibody, V domains shown)
VH: DVQLVESGGGLVQPGGSRKLSCAASGFTFSTFGMHWVRQAPEKGLEWVAYISSGSSTIYYADTVKGRFTISRDNPKNTLFLQMTSLRSDDTAMYYCSRSYYGSAHYFDYWGQGTTLTVSS
VL: DIQMTQSPASLSVSVGETVTITCRASENIYSNLAWYQQKQGKSPQLLVYVATNLADGVPSRFSGSGSGTQYSLRINNLQSEDFGNYYCQHFWGTPPTFGGGTKLEIK

Numbering of substitutions follows the chain as printed. Bounds are passed on as bounds.

For the first assay, the target named is rat relaxin family peptide receptor 2 (RXFP2) (rat) (UniProt Q5ECL0).
rat relaxin family peptide receptor 2 (RXFP2) (rat), sequence (Q5ECL0 entry or part of it): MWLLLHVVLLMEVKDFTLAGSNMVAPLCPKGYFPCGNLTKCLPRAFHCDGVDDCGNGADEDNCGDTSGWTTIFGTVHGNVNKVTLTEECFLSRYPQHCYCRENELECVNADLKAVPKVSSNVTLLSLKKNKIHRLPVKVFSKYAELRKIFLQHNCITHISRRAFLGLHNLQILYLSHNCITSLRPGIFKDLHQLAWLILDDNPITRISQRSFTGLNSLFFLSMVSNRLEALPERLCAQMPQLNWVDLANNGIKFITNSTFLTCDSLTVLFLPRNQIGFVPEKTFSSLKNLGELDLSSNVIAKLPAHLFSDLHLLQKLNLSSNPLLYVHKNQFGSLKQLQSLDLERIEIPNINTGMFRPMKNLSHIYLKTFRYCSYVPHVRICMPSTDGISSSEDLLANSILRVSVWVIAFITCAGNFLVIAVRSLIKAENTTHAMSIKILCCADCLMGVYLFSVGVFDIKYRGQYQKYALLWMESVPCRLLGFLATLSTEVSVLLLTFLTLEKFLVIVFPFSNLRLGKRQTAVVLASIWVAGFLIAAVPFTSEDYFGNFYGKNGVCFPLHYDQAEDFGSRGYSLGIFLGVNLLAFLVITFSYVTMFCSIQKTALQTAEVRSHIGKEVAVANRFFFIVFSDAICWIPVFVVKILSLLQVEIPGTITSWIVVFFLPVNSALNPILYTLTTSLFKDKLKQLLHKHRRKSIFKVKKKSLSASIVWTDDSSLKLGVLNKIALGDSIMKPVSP
Take B1: the IC50, INSL3-induced cortisol release (ELISA) from H295R stably expressing rat RXFP2 was 0.21 nM.
B2 displayed an IC50, INSL3-induced aldosterone release (ELISA) from H295R stably expressing rat RXFP2 of 0.05 nM and an IC50, INSL3-induced cortisol release (ELISA) from H295R stably expressing rat RXFP2 of 0.17 nM.
As to B3, the IC50, INSL3-induced cortisol release (ELISA) from H295R stably expressing rat RXFP2 is 0.26 nM.

The target in another assay is human relaxin family peptide receptor 2 (RXFP2) (human) (UniProt Q8WXD0).
human relaxin family peptide receptor 2 (RXFP2) (human), sequence (Q8WXD0 whole entry): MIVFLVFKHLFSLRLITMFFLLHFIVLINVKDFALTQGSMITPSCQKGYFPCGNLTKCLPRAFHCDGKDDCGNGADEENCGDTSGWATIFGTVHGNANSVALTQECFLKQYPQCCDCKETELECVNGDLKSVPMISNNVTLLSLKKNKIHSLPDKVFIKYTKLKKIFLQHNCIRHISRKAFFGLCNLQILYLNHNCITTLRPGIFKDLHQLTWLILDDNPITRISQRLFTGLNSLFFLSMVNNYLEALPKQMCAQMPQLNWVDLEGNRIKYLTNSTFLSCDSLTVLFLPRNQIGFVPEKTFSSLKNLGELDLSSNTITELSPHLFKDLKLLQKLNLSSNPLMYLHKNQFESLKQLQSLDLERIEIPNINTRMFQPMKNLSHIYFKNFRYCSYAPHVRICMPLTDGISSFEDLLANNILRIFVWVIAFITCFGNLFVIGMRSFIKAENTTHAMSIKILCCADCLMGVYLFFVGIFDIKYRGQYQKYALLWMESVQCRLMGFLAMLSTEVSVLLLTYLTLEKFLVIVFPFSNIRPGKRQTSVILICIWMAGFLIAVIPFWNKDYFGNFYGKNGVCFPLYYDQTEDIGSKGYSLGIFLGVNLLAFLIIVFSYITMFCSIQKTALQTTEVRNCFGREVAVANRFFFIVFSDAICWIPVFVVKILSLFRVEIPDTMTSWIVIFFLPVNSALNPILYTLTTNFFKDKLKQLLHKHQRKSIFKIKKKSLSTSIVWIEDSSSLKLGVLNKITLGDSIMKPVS
For B1, the IC50, INSL3 (EC80)-stimulated cAMP in HEK293 stably expressing human RXFP2 came to 405 nM.
The same measure, in the same setting: the same measure for B2: over 1000 nM; for B4: 589 nM; for B5: 116 nM.
B3 gave a % Max Response, INSL3 (EC80)-stimulated cAMP in HEK293 stably expressing human RXFP2 of 84.5% and an IC50, INSL3 (EC80)-stimulated cAMP in HEK293 stably expressing human RXFP2 of 15.6 nM.
Take B6: the IC50, INSL3 (EC80)-stimulated cAMP in HEK293 stably expressing human RXFP2 stood at 218 nM.
B7 showed a % Max Response, INSL3 (EC80)-stimulated cAMP in HEK293 stably expressing human RXFP2 of 82.7% and an IC50, INSL3 (EC80)-stimulated cAMP in HEK293 stably expressing human RXFP2 of 354 nM.

The next assay deals with rat relaxin family peptide receptor 2 (RXFP2) (rat) (UniProt Q5ECL0). The source holds these as a separate data set.
On to B1, for which the % Max Response, INSL3 (EC80)-stimulated cAMP in HEK293 stably expressing rat RXFP2 came to 76.1%; the IC50, INSL3 (EC80)-stimulated cAMP in HEK293 stably expressing rat RXFP2 came out at 19.1 nM; the IC50, INSL3-stimulated CYP11B1 mRNA in H295R stably expressing rat RXFP2 was 0.32 nM; the IC50, INSL3-stimulated CYP11B2 mRNA in H295R stably expressing rat RXFP2 was 0.1 nM.
Consider B8, for which the % Max Response, INSL3 (EC80)-stimulated cAMP in HEK293 stably expressing rat RXFP2 was 85.7%; the IC50, INSL3 (EC80)-stimulated cAMP in HEK293 stably expressing rat RXFP2 worked out at 18.9 nM; the IC50, INSL3-stimulated CYP11B1 mRNA in H295R stably expressing rat RXFP2 amounted to 0.26 nM; the IC50, INSL3-stimulated CYP11B2 mRNA in H295R stably expressing rat RXFP2 worked out at 0.13 nM.
Taken in the same sequence, the figures for B2 were 86.8%, 21 nM, 0.14 nM and 0.11 nM.
The matching figures for B9: 71.6%, 15.8 nM, 0.33 nM and 0.16 nM.
The matching figures for B10: 89.2%, 14.2 nM, 0.21 nM and 0.15 nM.
For the molecule B11, the % Max Response, INSL3 (EC80)-stimulated cAMP in HEK293 stably expressing rat RXFP2 turned out to be 83.3%; the IC50, INSL3 (EC80)-stimulated cAMP in HEK293 stably expressing rat RXFP2 came out at 16.1 nM; the IC50, INSL3-stimulated CYP11B1 mRNA in H295R stably expressing rat RXFP2 amounted to 0.33 nM; the IC50, INSL3-stimulated CYP11B2 mRNA in H295R stably expressing rat RXFP2 was determined as 0.2 nM.
The matching figures for B4: 69.7%, 19.9 nM, 0.27 nM and 0.23 nM.
The matching figures for B5: 86.6%, 21.4 nM, 0.23 nM and 0.17 nM.
On to B3, for which the % Max Response, INSL3 (EC80)-stimulated cAMP in HEK293 stably expressing rat RXFP2 was determined as 82.5%; the IC50, INSL3 (EC80)-stimulated cAMP in HEK293 stably expressing rat RXFP2 is 14.1 nM; the IC50, INSL3-stimulated CYP11B1 mRNA in H295R stably expressing rat RXFP2 was 0.33 nM; the IC50, INSL3-stimulated CYP11B2 mRNA in H295R stably expressing rat RXFP2 came to 0.1 nM.
Taken in the same sequence, the figures for B12 were 78.5%, 37 nM, 3.85 nM and 0.51 nM.
Taken in the same sequence, the figures for B13 were 87.2%, 28 nM, 0.27 nM and 0.17 nM.
The matching figures for B14: 91%, 23.2 nM, 2.85 nM and 0.31 nM.
B6: the % Max Response, INSL3 (EC80)-stimulated cAMP in HEK293 stably expressing rat RXFP2 worked out at 69.7% and the IC50, INSL3 (EC80)-stimulated cAMP in HEK293 stably expressing rat RXFP2 was 150 nM.
The molecule B7 gave a % Max Response, INSL3 (EC80)-stimulated cAMP in HEK293 stably expressing rat RXFP2 of 80.4% and an IC50, INSL3 (EC80)-stimulated cAMP in HEK293 stably expressing rat RXFP2 of 48.5 nM.
